Data reported in publication PMC6194501, “A chemical reporter facilitates the detection and identification of lysine HMGylation on histones† †Electronic supplementary information (ESI) available: Experimental methods and figures. See DOI: 10.1039/c8sc02483a” (Chemical Science, 2018).
Starred links: 1 amine or outer side, 2 acyl side, 3 side chain; linkers in the order of their positions; H or OH if unused. No end group written: not given here. Glutaryl = O=C(CCCC(=O)[*:2])[*:1]

Each binder was assayed against T1, human Sirt5 (human, UniProt Q9NXA8 37-310) (assay: ITC; isothermal titration calorimetry of Sirt5 with H3K9 acyl peptides; which partner was titrated and the conditions are not told in the text shown). Settings: both partners purified.
T1 construct: Sirt5 (sirtuin 5), human; the ESI (experimental methods) may tell them; also called sirtuin 5
T1 sequence (looked up): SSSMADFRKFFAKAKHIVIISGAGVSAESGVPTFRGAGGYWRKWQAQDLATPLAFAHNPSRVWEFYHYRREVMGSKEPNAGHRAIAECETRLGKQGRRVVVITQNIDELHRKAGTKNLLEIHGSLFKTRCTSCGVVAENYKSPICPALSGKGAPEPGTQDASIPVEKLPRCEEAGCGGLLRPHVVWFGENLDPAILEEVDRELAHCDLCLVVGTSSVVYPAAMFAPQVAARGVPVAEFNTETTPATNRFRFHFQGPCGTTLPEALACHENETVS

Kd | Binder
61.7 µM | KQTARK(HMG)STGGKA [histone H3 peptide carrying an HMG mark at Lys9]
35 µM | ARTKQTARKSTGGKA (malonyl-lysine (Kmal) at Lys9) [H3K9mal]
12.6 µM | KQTARK(Glutaryl)STGGKA [H3K9glu]
